Results published in patent publication US20240018252A1 (Pfizer, published 2024).

Tests used:
[1] = target: T1, human BCMA (human, UniProt Q02223 1-54); experiment: SPR, immobilised IgG, 37° C
T1 construct: also called huBCMA; hBCMA
T1 sequence: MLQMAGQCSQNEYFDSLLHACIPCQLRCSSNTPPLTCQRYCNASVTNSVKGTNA

[2] = target: T2, cyBCMA (cynomolgus, UniProt A0A2K5UD97 1-53); experiment: SPR, immobilised IgG, 37° C
T2 construct: Soluble analyte in SPR; construct not described; also called cyno BCMA
T2 sequence (A0A2K5UD97 entry or part of it): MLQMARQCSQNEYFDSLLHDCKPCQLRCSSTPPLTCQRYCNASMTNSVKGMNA

B1: L3.PY/L1.AH/H2.QR (antibody, V domains shown)
VH: EVQLLESGGGLVQPGGSLRLSCAASGFTFGSYAMTWVRQAPGKGLEWVSAISGSGGNTFYADQRKGRFTISRDNSKNTLYLQMNSLRAEDTAVYYCARVSPIASGMDYWGQGTLVTVSS
VL: EIVLTQSPGTLSLSPGERATLSCRASQSVSAHYLAWYQQKPGQAPRLLIYGASSRATGIPDRFSGSGSGTDFTLTISRLEPEDFAVYYCQHYPYPPSFTFGQGTKVEIK
notes: IgG in the assay
- T½ [1]: 6.39 min
- T½ [2]: 2.35 min

B2: L3.PY/L1.AH/H2.YQ (antibody, V domains shown)
VH: EVQLLESGGGLVQPGGSLRLSCAASGFTFGSYAMTWVRQAPGKGLEWVSAISYQGGNTFYADSVKGRFTISRDNSKNTLYLQMNSLRAEDTAVYYCARVSPIASGMDYWGQGTLVTVSS
VL: EIVLTQSPGTLSLSPGERATLSCRASQSVSAHYLAWYQQKPGQAPRLLIYGASSRATGIPDRFSGSGSGTDFTLTISRLEPEDFAVYYCQHYPYPPSFTFGQGTKVEIK
notes: IgG in the assay
- T½ [1]: 6 min
- T½ [2]: 2.68 min

B3: L3.PY/L1.AH/H3.AE (antibody, V domains shown)
VH: EVQLLESGGGLVQPGGSLRLSCAASGFTFGSYAMTWVRQAPGKGLEWVSAISGSGGNTFYADSVKGRFTISRDNSKNTLYLQMNSLRAEDTAVYYCARVSPIAAEMDYWGQGTLVTVSS
VL: EIVLTQSPGTLSLSPGERATLSCRASQSVSAHYLAWYQQKPGQAPRLLIYGASSRATGIPDRFSGSGSGTDFTLTISRLEPEDFAVYYCQHYPYPPSFTFGQGTKVEIK
notes: IgG in the assay
- T½ [1]: 6.7 min
- T½ [2]: 3.25 min

B4: L3.PY/L1.AH/H3.AQ (antibody, V domains shown)
VH: EVQLLESGGGLVQPGGSLRLSCAASGFTFGSYAMTWVRQAPGKGLEWVSAISGSGGNTFYADSVKGRFTISRDNSKNTLYLQMNSLRAEDTAVYYCARVSPIAAQMDYWGQGTLVTVSS
VL: EIVLTQSPGTLSLSPGERATLSCRASQSVSAHYLAWYQQKPGQAPRLLIYGASSRATGIPDRFSGSGSGTDFTLTISRLEPEDFAVYYCQHYPYPPSFTFGQGTKVEIK
notes: IgG in the assay
- T½ [1]: 5.85 min
- T½ [2]: 2.9 min

B5: L3.PY/L1.AH/H3.YA (antibody, V domains shown)
VH: EVQLLESGGGLVQPGGSLRLSCAASGFTFGSYAMTWVRQAPGKGLEWVSAISGSGGNTFYADSVKGRFTISRDNSKNTLYLQMNSLRAEDTAVYYCARVSPIYAGMDYWGQGTLVTVSS
VL: EIVLTQSPGTLSLSPGERATLSCRASQSVSAHYLAWYQQKPGQAPRLLIYGASSRATGIPDRFSGSGSGTDFTLTISRLEPEDFAVYYCQHYPYPPSFTFGQGTKVEIK
notes: IgG in the assay
- T½ [1]: 7.73 min
- T½ [2]: 2.2 min

B6: L3.PY/L1.AH/P6E01 (antibody, V domains shown)
VH: EVQLLESGGGLVQPGGSLRLSCAASGFTFGSYAMTWVRQAPGKGLEWVSAISGSGGNTFYADSVKGRFTISRDNSKNTLYLQMNSLRAEDTAVYYCARVSPIASGMDYWGQGTLVTVSS
VL: EIVLTQSPGTLSLSPGERATLSCRASQSVSAHYLAWYQQKPGQAPRLLIYGASSRATGIPDRFSGSGSGTDFTLTISRLEPEDFAVYYCQHYPYPPSFTFGQGTKVEIK
notes: IgG in the assay
- T½ [1]: 9.19 min
- T½ [2]: 2.02 min

B7: L3.PY/L1.FF/P6E01 (antibody, V domains shown)
VH: EVQLLESGGGLVQPGGSLRLSCAASGFTFGSYAMTWVRQAPGKGLEWVSAISGSGGNTFYADSVKGRFTISRDNSKNTLYLQMNSLRAEDTAVYYCARVSPIASGMDYWGQGTLVTVSS
VL: EIVLTQSPGTLSLSPGERATLSCRASQSVSSFFLAWYQQKPGQAPRLLIYGASSRATGIPDRFSGSGSGTDFTLTISRLEPEDFAVYYCQHYPYPPSFTFGQGTKVEIK
notes: IgG in the assay
- T½ [1]: 8.18 min
- T½ [2]: 1.96 min

B8: L3.PY/L1.PH/P6E01 (antibody, V domains shown)
VH: EVQLLESGGGLVQPGGSLRLSCAASGFTFGSYAMTWVRQAPGKGLEWVSAISGSGGNTFYADSVKGRFTISRDNSKNTLYLQMNSLRAEDTAVYYCARVSPIASGMDYWGQGTLVTVSS
VL: EIVLTQSPGTLSLSPGERATLSCRASQSVSPHYLAWYQQKPGQAPRLLIYGASSRATGIPDRFSGSGSGTDFTLTISRLEPEDFAVYYCQHYPYPPSFTFGQGTKVEIK
notes: IgG in the assay
- T½ [1]: 12.7 min
- T½ [2]: 1.46 min

B9: L3.PY/L1.PS/H2.DY (antibody, V domains shown)
VH: EVQLLESGGGLVQPGGSLRLSCAASGFTFGSYAMTWVRQAPGKGLEWVSAIDYSGGNTFYADSVKGRFTISRDNSKNTLYLQMNSLRAEDTAVYYCARVSPIASGMDYWGQGTLVTVSS
VL: EIVLTQSPGTLSLSPGERATLSCRASQSVSSSYPSWYQQKPGQAPRLLIYGASSRATGIPDRFSGSGSGTDFTLTISRLEPEDFAVYYCQHYPYPPSFTFGQGTKVEIK
notes: IgG in the assay
- T½ [1]: 3.2 min
- T½ [2]: 3.06 min

B10: L3.PY/L1.PS/H2.HA (antibody, V domains shown)
VH: EVQLLESGGGLVQPGGSLRLSCAASGFTFGSYAMTWVRQAPGKGLEWVSAISHAGGNTFYADSVKGRFTISRDNSKNTLYLQMNSLRAEDTAVYYCARVSPIASGMDYWGQGTLVTVSS
VL: EIVLTQSPGTLSLSPGERATLSCRASQSVSSSYPSWYQQKPGQAPRLLIYGASSRATGIPDRFSGSGSGTDFTLTISRLEPEDFAVYYCQHYPYPPSFTFGQGTKVEIK
notes: IgG in the assay
- T½ [1]: 1.09 min
- T½ [2]: 4.3 min

B11: L3.PY/L1.PS/H2.LT (antibody, V domains shown)
VH: EVQLLESGGGLVQPGGSLRLSCAASGFTFGSYAMTWVRQAPGKGLEWVSAISLTGGNTFYADSVKGRFTISRDNSKNTLYLQMNSLRAEDTAVYYCARVSPIASGMDYWGQGTLVTVSS
VL: EIVLTQSPGTLSLSPGERATLSCRASQSVSSSYPSWYQQKPGQAPRLLIYGASSRATGIPDRFSGSGSGTDFTLTISRLEPEDFAVYYCQHYPYPPSFTFGQGTKVEIK
notes: IgG in the assay
- T½ [1]: 2.49 min
- T½ [2]: 2.81 min

B12: L3.PY/L1.PS/H2.QL (antibody, V domains shown)
VH: EVQLLESGGGLVQPGGSLRLSCAASGFTFGSYAMTWVRQAPGKGLEWVSAISGSGGNTFYADQLKGRFTISRDNSKNTLYLQMNSLRAEDTAVYYCARVSPIASGMDYWGQGTLVTVSS
VL: EIVLTQSPGTLSLSPGERATLSCRASQSVSSSYPSWYQQKPGQAPRLLIYGASSRATGIPDRFSGSGSGTDFTLTISRLEPEDFAVYYCQHYPYPPSFTFGQGTKVEIK
notes: IgG in the assay
- T½ [1]: 0.04 min
- T½ [2]: 18.2 min

B13: L3.PY/L1.PS/H2.QR (antibody, V domains shown)
VH: EVQLLESGGGLVQPGGSLRLSCAASGFTFGSYAMTWVRQAPGKGLEWVSAISGSGGNTFYADQRKGRFTISRDNSKNTLYLQMNSLRAEDTAVYYCARVSPIASGMDYWGQGTLVTVSS
VL: EIVLTQSPGTLSLSPGERATLSCRASQSVSSSYPSWYQQKPGQAPRLLIYGASSRATGIPDRFSGSGSGTDFTLTISRLEPEDFAVYYCQHYPYPPSFTFGQGTKVEIK
notes: IgG in the assay
- T½ [1]: 0.11 min
- T½ [2]: 17.2 min

B14: L3.PY/L1.PS/H2.YQ (antibody, V domains shown)
VH: EVQLLESGGGLVQPGGSLRLSCAASGFTFGSYAMTWVRQAPGKGLEWVSAISYQGGNTFYADSVKGRFTISRDNSKNTLYLQMNSLRAEDTAVYYCARVSPIASGMDYWGQGTLVTVSS
VL: EIVLTQSPGTLSLSPGERATLSCRASQSVSSSYPSWYQQKPGQAPRLLIYGASSRATGIPDRFSGSGSGTDFTLTISRLEPEDFAVYYCQHYPYPPSFTFGQGTKVEIK
notes: IgG in the assay
- T½ [1]: 2.69 min
- T½ [2]: 3.09 min

B15: L3.PY/L1.PS/H3.AE (antibody, V domains shown)
VH: EVQLLESGGGLVQPGGSLRLSCAASGFTFGSYAMTWVRQAPGKGLEWVSAISGSGGNTFYADSVKGRFTISRDNSKNTLYLQMNSLRAEDTAVYYCARVSPIAAEMDYWGQGTLVTVSS
VL: EIVLTQSPGTLSLSPGERATLSCRASQSVSSSYPSWYQQKPGQAPRLLIYGASSRATGIPDRFSGSGSGTDFTLTISRLEPEDFAVYYCQHYPYPPSFTFGQGTKVEIK
notes: IgG in the assay
- T½ [1]: 7.93 min
- T½ [2]: 2.8 min

B16: L3.PY/L1.PS/H3.AQ (antibody, V domains shown)
VH: EVQLLESGGGLVQPGGSLRLSCAASGFTFGSYAMTWVRQAPGKGLEWVSAISGSGGNTFYADSVKGRFTISRDNSKNTLYLQMNSLRAEDTAVYYCARVSPIAAQMDYWGQGTLVTVSS
VL: EIVLTQSPGTLSLSPGERATLSCRASQSVSSSYPSWYQQKPGQAPRLLIYGASSRATGIPDRFSGSGSGTDFTLTISRLEPEDFAVYYCQHYPYPPSFTFGQGTKVEIK
notes: IgG in the assay
- T½ [1]: 6.46 min
- T½ [2]: 2.67 min

B17: L3.PY/L1.PS/H3.TAQ (antibody, V domains shown)
VH: EVQLLESGGGLVQPGGSLRLSCAASGFTFGSYAMTWVRQAPGKGLEWVSAISGSGGNTFYADSVKGRFTISRDNSKNTLYLQMNSLRAEDTAVYYCTRVSPIAAQMDYWGQGTLVTVSS
VL: EIVLTQSPGTLSLSPGERATLSCRASQSVSSSYPSWYQQKPGQAPRLLIYGASSRATGIPDRFSGSGSGTDFTLTISRLEPEDFAVYYCQHYPYPPSFTFGQGTKVEIK
notes: IgG in the assay
- T½ [1]: 4.7 min
- T½ [2]: 2.09 min

B18: L3.PY/L1.PS/H3.YA (antibody, V domains shown)
VH: EVQLLESGGGLVQPGGSLRLSCAASGFTFGSYAMTWVRQAPGKGLEWVSAISGSGGNTFYADSVKGRFTISRDNSKNTLYLQMNSLRAEDTAVYYCARVSPIYAGMDYWGQGTLVTVSS
VL: EIVLTQSPGTLSLSPGERATLSCRASQSVSSSYPSWYQQKPGQAPRLLIYGASSRATGIPDRFSGSGSGTDFTLTISRLEPEDFAVYYCQHYPYPPSFTFGQGTKVEIK
notes: IgG in the assay
- T½ [1]: 1.28 min
- T½ [2]: 1.16 min

B19: L3.PY/L1.PS/P6E01 (antibody, V domains shown)
VH: EVQLLESGGGLVQPGGSLRLSCAASGFTFGSYAMTWVRQAPGKGLEWVSAISGSGGNTFYADSVKGRFTISRDNSKNTLYLQMNSLRAEDTAVYYCARVSPIASGMDYWGQGTLVTVSS
VL: EIVLTQSPGTLSLSPGERATLSCRASQSVSSSYPSWYQQKPGQAPRLLIYGASSRATGIPDRFSGSGSGTDFTLTISRLEPEDFAVYYCQHYPYPPSFTFGQGTKVEIK
notes: IgG in the assay
- T½ [1]: 10.2 min
- T½ [2]: 1.91 min

B20: L3.PY/L3.KF/P6E01 (antibody, V domains shown)
VH: EVQLLESGGGLVQPGGSLRLSCAASGFTFGSYAMTWVRQAPGKGLEWVSAISGSGGNTFYADSVKGRFTISRDNSKNTLYLQMNSLRAEDTAVYYCARVSPIASGMDYWGQGTLVTVSS
VL: EIVLTQSPGTLSLSPGERATLSCRASQSVSSSYLAWYQQKPGQAPRLLIYGASSRATGIPDRFSGSGSGTDFTLTISRLEPEDFAVYYCKFYPYPPSFTFGQGTKVEIK
notes: IgG in the assay
- T½ [1]: 5.56 min
- T½ [2]: 1.39 min
